One experiment has as its target T1, 重组小鼠EGFL7蛋白 (mouse, UniProt Q9QXT5 22-275, limits assumed).
T1 construct: also called mEGFL7; 带polyHis标签的EGFL7
T1 sequence (looked up): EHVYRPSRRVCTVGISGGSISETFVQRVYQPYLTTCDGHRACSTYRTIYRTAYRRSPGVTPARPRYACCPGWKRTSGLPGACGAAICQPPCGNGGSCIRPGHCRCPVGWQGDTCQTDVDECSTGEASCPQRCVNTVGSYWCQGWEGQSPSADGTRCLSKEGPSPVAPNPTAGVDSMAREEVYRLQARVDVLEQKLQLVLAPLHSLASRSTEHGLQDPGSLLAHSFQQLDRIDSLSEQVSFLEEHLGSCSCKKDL
The experiment can be described thus: SPR, BIAcore 3000, room temperature, polyHis-tagged EGFL7 injected, 1:1 model, mAb stock in 50mM Tris/125mM NaCl. For orientation: Surface plasmon resonance follows binding to a sensor surface in real time, without labels.

For a further experiment, the target named is T2, 重组人EGFL7蛋白 (human, UniProt Q9UHF1 24-273, limits assumed).
T2 construct: also called hEGFL7; 带polyHis标签的EGFL7
T2 sequence (looked up): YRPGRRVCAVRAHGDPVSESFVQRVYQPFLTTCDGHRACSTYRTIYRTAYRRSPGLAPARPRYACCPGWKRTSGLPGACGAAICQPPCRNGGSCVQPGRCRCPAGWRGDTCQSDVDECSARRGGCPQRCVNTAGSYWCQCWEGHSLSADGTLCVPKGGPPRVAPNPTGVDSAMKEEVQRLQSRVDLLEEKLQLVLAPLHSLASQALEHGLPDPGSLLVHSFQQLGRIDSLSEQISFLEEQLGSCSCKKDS
The experiment is described as above.

B1: 抗EGFL7鼠单抗4F11.1.8 (antibody, V domains shown)
VH: QIQLVQSGPELKKPGETVKISCKASGHTFTTYGMSWVKQAPGKGLKWMGWINTHSGVPTYADDFKGRFAFSLETSASTAHLQINNLKNEDTATYFCARLGSSAVDYWGQGTTVTVSS
VL: DIVLTQSPASLAVSLGQRATISCKASQSVDYDGDSYMSWYQQKPGQPPKLLIYGASNLESGIPARFSGSGSGTDFTLNIHPVEEEDAATYYCQQNNEDPYTFGGGTKVEIKR
notes: Hybridoma deposit PTA-7343
B1: the Kd is 756 pM in the experiment with 重组小鼠EGFL7蛋白 and 473 pM in the experiment with 重组人EGFL7蛋白.

The Kd is the equilibrium constant for the complex coming apart.

The values are drawn from patent publication CN101443359A (GENENTECH INC, dated 2009).
